# In the supplement of paper PMC10567573:
# B1: USP39 (parent)
# chain: FVEKNPTIVNFPITNVDLREYLSE
# B2: NP_002788.1 (parent)
# chain: DGWIRVSSDNVADLHEKYSGSTP
# Variants of: B1
# Test: protein stability index of a GFP-peptide fusion (GPS, HEK-293T) (PSI 1-6); higher = more stable
# Details: c terminus: a fixed tail appended
row,Variant,protein stability index
1,E3K,1.94
2,E3F,2.57
3,E3I,1.85
4,E3R,1.38
5,E3Q,1.58
6,E3A,1.49
7,E3S,3.64
8,E3W,1.55
9,E3V,2.25
10,E3T,1.15
11,E3G,1.66
12,E3N,1.85
13,E3P,2.41
14,E3H,1.83
15,E3D,1.95
16,E3Y,2.21
17,E3C,1.52
18,E3L,1.27
19,V2W,2.81
20,V2Y,2.62
21,V2E,3.88
22,V2T,3.2
23,V2H,2.94
24,V2D,3.79
25,V2F,2.74

row,Variant,protein stability index
1,V2K,3.26
2,V2N,3.68
3,V2P,2.96
4,V2M,3.36
5,V2G,3.51
6,V2A,2.75
7,V2S,3.02
8,V2R,3.84
9,V2L,2.43
10,V2Q,2.81
11,V2C,2.94
12,V2I,2.3
13,K4T,2.29
14,K4R,1.9
15,K4N,2.05
16,K4W,1.24
17,K4L,2.45
18,K4M,1.54
19,K4G,2.11
20,K4E,2.47
21,K4P,1.61
22,K4A,1.74
23,K4Q,2.61
24,K4H,2.03
25,K4V,1.81

row,Variant,protein stability index
1,K4I,1.07
2,K4S,2.52
3,K4C,1.42
4,K4Y,2.32
5,K4F,1.14
6,K4D,2.85
7,F1C,2.87
8,F1R,3.78
9,F1M,3.36
10,F1D,4.5
11,F1S,4.11
12,F1L,3.95
13,F1Y,1.99
14,F1A,3.59
15,F1N,4.08
16,F1V,3.89
17,F1G,3.26
18,F1W,2.49
19,F1H,4.01
20,F1K,4.34
21,F1P,3.85
22,F1I,3.4
23,F1E,4.26
24,F1Q,3.71
25,F1T,3.87

row,Variant,protein stability index
1,P6E,2.21
2,P6F,2.6
3,P6A,3.96
4,P6C,2.45
5,P6D,2.39
6,N5L,2.63
7,N5C,1.44
8,N5E,1.91
9,N5T,2.37
10,N5Y,2.83
11,N5K,2.74
12,N5M,2.15
13,N5D,2.74
14,N5S,2.08
15,N5V,2.05
16,N5P,1.67
17,N5G,1.51
18,N5A,1.35
19,N5Q,2.55
20,N5H,1.96
21,N5R,1.94
22,N5I,1.58

# Variants of: B2
# Test: as above
# Details: c terminus: native
row,Variant,protein stability index
1,V11K,1.78
2,V11Q,2.38
3,V11L,2.21
4,V11N,2.69
5,V11R,1.87
6,V11S,2.47
7,V11W,2.4
8,V11P,2.73
9,V11M,2.64
10,V11Y,2.67
11,V11T,2.48
12,H15E,2.98
13,H15I,2.68
14,H15R,2.33
15,H15A,2.51
16,H15N,2.92
17,H15F,2.82
18,H15C,2.73
19,H15T,2.77
20,H15D,2.85
21,H15L,2.66
22,H15Y,2.42
23,H15Q,2.76
24,H15P,3.06

row,Variant,protein stability index
1,H15G,2.71
2,H15M,2.64
3,H15S,2.47
4,H15W,2.39
5,H15V,2.4
6,H15K,2.77
7,L14Q,2.89
8,L14K,2.37
9,L14A,2.84
10,L14I,2.35
11,L14C,2.92
12,L14P,2.57
13,L14H,2.06
14,L14E,2.74
15,L14F,1.96
16,L14N,2.98
17,L14R,2.41
18,L14V,2.36
19,L14D,2.89
20,L14T,2.86
21,L14Y,2.5
22,L14M,2.65
23,L14G,3.47
24,L14W,2.62

row,Variant,protein stability index
1,L14S,3.01
2,E16R,2.97
3,E16H,2.67
4,E16A,2.5
5,E16S,2.64
6,E16Y,2.87
7,E16K,3.12
8,E16M,2.53
9,E16L,2.76
10,E16D,2.58
11,E16W,2.65
12,E16N,2.95
13,E16Q,2.87
14,E16T,2.8
15,E16P,3.32
16,E16I,2.58
17,E16V,2.92
18,E16C,2.62
19,E16G,3.13
20,E16F,2.46
21,G20N,3.92
22,G20I,3.86
23,G20V,3.82
24,G20P,3.99

row,Variant,protein stability index
1,G20T,4.17
2,G20M,3.63
3,G20W,2.9
4,G20Y,3.29
5,G20K,3.93
6,G20E,4.64
7,G20L,3.72
8,G20C,2.82
9,G20D,4.65
10,G20R,4.17
11,G20A,3.8
12,G20H,3.79
13,G20Q,3.43
14,G20S,3.44
15,G20F,3.63
16,A12F,2.32
17,A12L,2.88
18,A12R,2.46
19,A12E,2.52
20,A12W,2.46
21,A12Q,2.25
22,A12N,2.48
23,A12V,2.44
24,A12I,2.59

row,Variant,protein stability index
1,A12P,2.45
2,A12G,2.68
3,A12M,2.3
4,A12C,2.57
5,A12S,2.24
6,A12K,2.33
7,A12Y,2.73
8,A12H,2.85
9,A12T,2.43
10,S19T,2.47
11,S19Y,2.47
12,S19L,2
13,S19M,2.28
14,S19P,2.34
15,S19Q,2.41
16,S19W,2.68
17,S19D,3.5
18,S19H,2.56
19,S19C,2.9
20,S19I,2.49
21,S19R,2.34
22,S19K,1.95
23,S19G,3.02
24,S19V,2.94

row,Variant,protein stability index
1,S19N,3.07
2,S19F,2.82
3,S19A,2.26
4,S19E,2.87
5,P23T,4.51
6,P23H,4.63
7,P23L,3.93
8,P23F,4.29
9,P23C,4.56
10,P23E,5.11
11,P23M,3.41
12,P23Q,4.78
13,P23A,4.55
14,P23I,3.13
15,P23W,3.31
16,P23Y,4.27
17,P23S,5
18,P23D,5.08
19,P23N,4.71
20,P23G,4.43
21,P23R,3.78
22,P23K,5.05
23,P23V,4.02
24,K17S,3.41

row,Variant,protein stability index
1,K17P,3.69
2,K17F,3.36
3,K17C,3.04
4,K17E,3.47
5,K17A,3.52
6,K17Y,3.34
7,K17G,3.75
8,K17D,3.58
9,K17I,3.12
10,K17T,3.27
11,K17N,3.33
12,K17W,2.97
13,K17H,3.24
14,K17V,3.18
15,K17L,3.06
16,K17M,3.19
17,K17Q,3.16
18,T22I,2.31
19,T22Y,2.63
20,T22F,2.12
21,T22P,4.85
22,T22S,3.1
23,T22C,2.36
24,T22D,2.98

row,Variant,protein stability index
1,T22E,2.64
2,T22A,3.29
3,T22W,2.81
4,T22L,2.28
5,T22Q,2.78
6,T22M,2
7,T22R,3.98
8,T22V,2.46
9,T22N,4.05
10,T22G,2.58
11,T22K,4.96
12,T22H,3.06
13,S21D,4.54
14,S21W,3.02
15,S21G,3.59
16,S21V,1.83
17,S21F,2.16
18,S21A,2.21
19,S21N,1.94
20,S21C,1.98
21,S21Q,3.01
22,S21I,1.95
23,S21H,2.49
24,S21T,2.19

row,Variant,protein stability index
1,S21M,1.87
2,S21L,2.06
3,S21E,4.56
4,S21R,2.16
5,S21Y,2.26
6,S21K,3.06
7,S21P,3.5
8,D13W,2.71
9,D13E,2.72
10,D13N,2.4
11,D13I,2.53
12,D13S,2.52
13,D13T,2.47
14,D13R,2.04
15,D13H,2.38
16,D13V,2.75
17,D13F,2.62
18,D13C,2.6
19,D13Q,2.47
20,D13P,2.3
21,D13G,2.42
22,D13K,2.71
23,D13A,2.66
24,D13M,2.53

row,Variant,protein stability index
1,D13Y,2.54
2,D13L,2.58
3,Y18K,4.17
4,Y18W,2.81
5,Y18L,2.69
6,Y18H,2.68
7,Y18V,3.22
8,Y18E,3.23
9,Y18R,3.3
10,Y18S,3.6
11,Y18F,2.44
12,Y18Q,3.46
13,Y18D,3.64
14,Y18G,3.6
15,Y18I,3.11
16,Y18N,3.13
17,Y18P,4.33
18,Y18A,3.39
19,Y18C,3.09
20,Y18T,3.66
21,Y18M,2.92
